Tests used:
[1] = target: T1, CcpA (catabolite control protein A) (Staphylococcus aureus XN108 (clinical isolate)?) (UniProt P99175); assay: EMSA
T1 sequence: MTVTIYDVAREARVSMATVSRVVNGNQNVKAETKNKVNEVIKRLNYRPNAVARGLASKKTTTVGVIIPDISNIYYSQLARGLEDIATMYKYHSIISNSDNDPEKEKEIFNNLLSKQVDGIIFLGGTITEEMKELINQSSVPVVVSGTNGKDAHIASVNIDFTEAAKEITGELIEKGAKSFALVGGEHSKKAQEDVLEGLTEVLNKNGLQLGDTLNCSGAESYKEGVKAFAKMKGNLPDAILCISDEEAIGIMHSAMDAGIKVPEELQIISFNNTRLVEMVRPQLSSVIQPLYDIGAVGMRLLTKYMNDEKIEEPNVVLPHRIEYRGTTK

[2] = target: T1, CcpA (catabolite control protein A) (Staphylococcus aureus XN108 (clinical isolate)?); assay: competition

GGCGCTTCCTCCAAATATAATATATTTGTTTTTATTTATCTCTTTTTATAGCTAACACCCTTATTTAAGATGATAAATATCAACAACTTCATTTTATATTGAGAAAATATTAAAAATCAATAAAATATTAAAAGAAACTAAACTTACATTAAAAAATAATTAACAAATATTTAACATTTTAACCTAAGAA (double strand) [Psak]
binding [1]: binds
binding [2]: binds

Source: article PMC9598941
